Results as given in patent US20160297884A1 (Pfizer, published 2016).

T1: Human BCMA (human, UniProt Q02223 1-54, limits assumed)
T1 construct: Soluble analyte in SPR; construct not described; also called huBCMA; B-cell maturation antigen
T1 sequence (looked up): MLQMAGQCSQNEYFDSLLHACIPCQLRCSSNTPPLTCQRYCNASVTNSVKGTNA

B1: L3.PY/L3.KF/H2.DY (antibody, V domains shown)
VH: EVQLLESGGGLVQPGGSLRLSCAASGFTFGSYAMTWVRQAPGKGLEWVSAIDYSGGNTFYADSVKGRFTISRDNSKNTLYLQMNSLRAEDTAVYYCARVSPIASGMDYWGQGTLVTVSS
VL: EIVLTQSPGTLSLSPGERATLSCRASQSVSSSYLAWYQQKPGQAPRLLIYGASSRATGIPDRFSGSGSGTDFTLTISRLEPEDFAVYYCKFYPYPPSFTFGQGTKVEIK
notes: IgG
B2: L3.PY/L3.KF/H3.TAQ (antibody, V domains shown)
VH: EVQLLESGGGLVQPGGSLRLSCAASGFTFGSYAMTWVRQAPGKGLEWVSAISGSGGNTFYADSVKGRFTISRDNSKNTLYLQMNSLRAEDTAVYYCTRVSPIAAQMDYWGQGTLVTVSS
VL: EIVLTQSPGTLSLSPGERATLSCRASQSVSSSYLAWYQQKPGQAPRLLIYGASSRATGIPDRFSGSGSGTDFTLTISRLEPEDFAVYYCKFYPYPPSFTFGQGTKVEIK
notes: IgG
B3: L3.PY/L3.KF/H3.AE (antibody, V domains shown)
VH: EVQLLESGGGLVQPGGSLRLSCAASGFTFGSYAMTWVRQAPGKGLEWVSAISGSGGNTFYADSVKGRFTISRDNSKNTLYLQMNSLRAEDTAVYYCARVSPIAAEMDYWGQGTLVTVSS
VL: EIVLTQSPGTLSLSPGERATLSCRASQSVSSSYLAWYQQKPGQAPRLLIYGASSRATGIPDRFSGSGSGTDFTLTISRLEPEDFAVYYCKFYPYPPSFTFGQGTKVEIK
notes: IgG
B4: L3.PY/L3.KY/H2.HA (antibody, V domains shown)
VH: EVQLLESGGGLVQPGGSLRLSCAASGFTFGSYAMTWVRQAPGKGLEWVSAISHAGGNTFYADSVKGRFTISRDNSKNTLYLQMNSLRAEDTAVYYCARVSPIASGMDYWGQGTLVTVSS
VL: EIVLTQSPGTLSLSPGERATLSCRASQSVSSSYLAWYQQKPGQAPRLLIYGASSRATGIPDRFSGSGSGTDFTLTISRLEPEDFAVYYCKYYPYPPSFTFGQGTKVEIK
notes: IgG
B5: L3.PY/L3.KF/H2.YQ (antibody, V domains shown)
VH: EVQLLESGGGLVQPGGSLRLSCAASGFTFGSYAMTWVRQAPGKGLEWVSAISYQGGNTFYADSVKGRFTISRDNSKNTLYLQMNSLRAEDTAVYYCARVSPIASGMDYWGQGTLVTVSS
VL: EIVLTQSPGTLSLSPGERATLSCRASQSVSSSYLAWYQQKPGQAPRLLIYGASSRATGIPDRFSGSGSGTDFTLTISRLEPEDFAVYYCKFYPYPPSFTFGQGTKVEIK
notes: IgG
B6: L3.PY/L3.KY/H2.QL (antibody, V domains shown)
VH: EVQLLESGGGLVQPGGSLRLSCAASGFTFGSYAMTWVRQAPGKGLEWVSAISGSGGNTFYADQLKGRFTISRDNSKNTLYLQMNSLRAEDTAVYYCARVSPIASGMDYWGQGTLVTVSS
VL: EIVLTQSPGTLSLSPGERATLSCRASQSVSSSYLAWYQQKPGQAPRLLIYGASSRATGIPDRFSGSGSGTDFTLTISRLEPEDFAVYYCKYYPYPPSFTFGQGTKVEIK
notes: IgG
B7: L3.PY/L3.KY/H2.QR (antibody, V domains shown)
VH: EVQLLESGGGLVQPGGSLRLSCAASGFTFGSYAMTWVRQAPGKGLEWVSAISGSGGNTFYADQRKGRFTISRDNSKNTLYLQMNSLRAEDTAVYYCARVSPIASGMDYWGQGTLVTVSS
VL: EIVLTQSPGTLSLSPGERATLSCRASQSVSSSYLAWYQQKPGQAPRLLIYGASSRATGIPDRFSGSGSGTDFTLTISRLEPEDFAVYYCKYYPYPPSFTFGQGTKVEIK
notes: IgG
B8: L3.PY/L3.KY/H2.DY (antibody, V domains shown)
VH: EVQLLESGGGLVQPGGSLRLSCAASGFTFGSYAMTWVRQAPGKGLEWVSAIDYSGGNTFYADSVKGRFTISRDNSKNTLYLQMNSLRAEDTAVYYCARVSPIASGMDYWGQGTLVTVSS
VL: EIVLTQSPGTLSLSPGERATLSCRASQSVSSSYLAWYQQKPGQAPRLLIYGASSRATGIPDRFSGSGSGTDFTLTISRLEPEDFAVYYCKYYPYPPSFTFGQGTKVEIK
notes: IgG
B9: L3.PY/L3.KF/H2.QL (antibody, V domains shown)
VH: EVQLLESGGGLVQPGGSLRLSCAASGFTFGSYAMTWVRQAPGKGLEWVSAISGSGGNTFYADQLKGRFTISRDNSKNTLYLQMNSLRAEDTAVYYCARVSPIASGMDYWGQGTLVTVSS
VL: EIVLTQSPGTLSLSPGERATLSCRASQSVSSSYLAWYQQKPGQAPRLLIYGASSRATGIPDRFSGSGSGTDFTLTISRLEPEDFAVYYCKFYPYPPSFTFGQGTKVEIK
notes: IgG
B10: L3.PY/L3.KY/H2.LT (antibody, V domains shown)
VH: EVQLLESGGGLVQPGGSLRLSCAASGFTFGSYAMTWVRQAPGKGLEWVSAISLTGGNTFYADSVKGRFTISRDNSKNTLYLQMNSLRAEDTAVYYCARVSPIASGMDYWGQGTLVTVSS
VL: EIVLTQSPGTLSLSPGERATLSCRASQSVSSSYLAWYQQKPGQAPRLLIYGASSRATGIPDRFSGSGSGTDFTLTISRLEPEDFAVYYCKYYPYPPSFTFGQGTKVEIK
notes: IgG
B11: L3.PY/L3.KY/H2.YQ (antibody, V domains shown)
VH: EVQLLESGGGLVQPGGSLRLSCAASGFTFGSYAMTWVRQAPGKGLEWVSAISYQGGNTFYADSVKGRFTISRDNSKNTLYLQMNSLRAEDTAVYYCARVSPIASGMDYWGQGTLVTVSS
VL: EIVLTQSPGTLSLSPGERATLSCRASQSVSSSYLAWYQQKPGQAPRLLIYGASSRATGIPDRFSGSGSGTDFTLTISRLEPEDFAVYYCKYYPYPPSFTFGQGTKVEIK
notes: IgG
B12: L3.PY/L3.KF/H2.LT (antibody, V domains shown)
VH: EVQLLESGGGLVQPGGSLRLSCAASGFTFGSYAMTWVRQAPGKGLEWVSAISLTGGNTFYADSVKGRFTISRDNSKNTLYLQMNSLRAEDTAVYYCARVSPIASGMDYWGQGTLVTVSS
VL: EIVLTQSPGTLSLSPGERATLSCRASQSVSSSYLAWYQQKPGQAPRLLIYGASSRATGIPDRFSGSGSGTDFTLTISRLEPEDFAVYYCKFYPYPPSFTFGQGTKVEIK
notes: IgG
B13: L3.PY/L3.KF/H3.YA (antibody, V domains shown)
VH: EVQLLESGGGLVQPGGSLRLSCAASGFTFGSYAMTWVRQAPGKGLEWVSAISGSGGNTFYADSVKGRFTISRDNSKNTLYLQMNSLRAEDTAVYYCARVSPIYAGMDYWGQGTLVTVSS
VL: EIVLTQSPGTLSLSPGERATLSCRASQSVSSSYLAWYQQKPGQAPRLLIYGASSRATGIPDRFSGSGSGTDFTLTISRLEPEDFAVYYCKFYPYPPSFTFGQGTKVEIK
notes: IgG
B14: L3.PY/L3.KF/H3.AQ (antibody, V domains shown)
VH: EVQLLESGGGLVQPGGSLRLSCAASGFTFGSYAMTWVRQAPGKGLEWVSAISGSGGNTFYADSVKGRFTISRDNSKNTLYLQMNSLRAEDTAVYYCARVSPIAAQMDYWGQGTLVTVSS
VL: EIVLTQSPGTLSLSPGERATLSCRASQSVSSSYLAWYQQKPGQAPRLLIYGASSRATGIPDRFSGSGSGTDFTLTISRLEPEDFAVYYCKFYPYPPSFTFGQGTKVEIK
notes: IgG

target: T1, Human BCMA; assay: SPR, IgG immobilised, 37 C
Protocol: All experiments were performed on a Bio-Rad Proteon XPR36 surface Plasmon resonance biosensor (Bio-Rad, Hercules, Calif.). […] The analysis temperature for the immobilization was 25° C. and the running buffer was HBS-T+(10 mM HEPES, 150 mM NaCl, 0.05% Tween-20, pH 7.4). Channels were activated in the analyte (horizontal) direction by injecting a mixture of 1 mM ECD and 0.25 mM NHS for 3 minutes at a flow rate of 30 μL/min. IgGs were immobilized on the activated spots by injecting them in the ligand (vertical) direction at 20 μg/mL in 10 mM Acetate pH 4.5 buffer for 1.5 minutes at […]. The activated surfaces were blocked by injecting 1M ethanolamine, pH 8.5 in the analyte direction for 3 minutes at 30 μL/min.
The analysis temperature for the BCMA binding analysis was 37° C. or 25° C. in a running buffer of HBS-T+, supplemented with 1 mg/mL BSA. A kinetic titration method was employed for the interaction analysis as described in Abdiche, et al. Human BCMA (huBCMA) or cynomolgus monkey BCMA (cyBCMA) analyte was injected in the analyte direction using a series of injections from low to high concentration. The concentrations used were 0.08 nM, 0.4 nM, 2 nM, 10 nM and 50 nM (a 5-membered series, with a 5-fold dilution factor and top concentration of 50 nM). The association time for a given analyte dilution was two minutes. Immediately after the 50 nM BCMA injection, dissociation was monitored for 2 hours.
The sensorgrams were double-referenced and fit to a 1:1 Langmuir with mass transport kinetic titration model in BIAevaluation Software version 4.1.1 (GE Lifesciences, Piscataway, N.J.).

**Q.** With B1 as the binder, how does the Kd read?
**A.** The Kd was 0.67 nM.

**Q.** And the “T ½” value?
**A.** The value was 6.35 min.

**Q.** And the koff?
**A.** The koff was 0.00182 s⁻¹.

**Q.** What about the kon of the same binder?
**A.** Its kon is 2.74e+06 M⁻¹ s⁻¹.

**Q.** B2 was tested. Which Kd did it give?
**A.** The Kd was 0.58 nM.

**Q.** What about the “T ½” value of the same binder?
**A.** Its value is 7.12 min.

**Q.** What about the koff of the same binder?
**A.** The koff was 0.00162 s⁻¹.

**Q.** And the kon?
**A.** Its kon is 2.82e+06 M⁻¹ s⁻¹.

**Q.** For B3, which Kd is on record?
**A.** The Kd was 0.51 nM.

**Q.** What about the “T ½” value of the same binder?
**A.** Its value is 7.44 min.

**Q.** And the koff?
**A.** Its koff is 0.00155 s⁻¹.

**Q.** And the kon?
**A.** Its kon is 3.07e+06 M⁻¹ s⁻¹.

**Q.** Which results are given for B4?
**A.** Kd: 0.49 nM; T ½: 7.1 min; koff: 0.00163 s⁻¹; kon: 3.29e+06 M⁻¹ s⁻¹

**Q.** B5 was tested. Which Kd did it give?
**A.** Its Kd is 1.14 nM.

**Q.** What about the “T ½” value of the same binder?
**A.** Its value is 5.18 min.

**Q.** And the koff?
**A.** The koff was 0.00223 s⁻¹.

**Q.** And the kon?
**A.** Its kon is 1.96e+06 M⁻¹ s⁻¹.

**Q.** How did the Kd turn out when B6 was run?
**A.** The Kd was 0.57 nM.

**Q.** What about the “T ½” value of the same binder?
**A.** Its value is 5.56 min.

**Q.** What about the koff of the same binder?
**A.** Its koff is 0.00208 s⁻¹.

**Q.** And the kon?
**A.** The kon was 3.65e+06 M⁻¹ s⁻¹.

**Q.** For B7, which Kd is on record?
**A.** Its Kd is 0.34 nM.

**Q.** What about the “T ½” value of the same binder?
**A.** The value was 11.7 min.

**Q.** And the koff?
**A.** Its koff is 0.00099 s⁻¹.

**Q.** And the kon?
**A.** The kon was 2.95e+06 M⁻¹ s⁻¹.

**Q.** Which Kd does the source give for B8 here?
**A.** The Kd was 0.2 nM.

**Q.** What about the “T ½” value of the same binder?
**A.** Its value is 18 min.

**Q.** And the koff?
**A.** The koff was 0.000642 s⁻¹.

**Q.** And the kon?
**A.** Its kon is 3.19e+06 M⁻¹ s⁻¹.

**Q.** Which results are given for B9?
**A.** Kd: 0.6 nM; T ½: 9.26 min; koff: 0.00125 s⁻¹; kon: 2.07e+06 M⁻¹ s⁻¹

**Q.** For B10, which Kd is on record?
**A.** Its Kd is 0.31 nM.

**Q.** And the “T ½” value?
**A.** The value was 12.8 min.

**Q.** What about the koff of the same binder?
**A.** Its koff is 0.000906 s⁻¹.

**Q.** And the kon?
**A.** Its kon is 2.92e+06 M⁻¹ s⁻¹.

**Q.** Which results are given for B11?
**A.** Kd: 0.77 nM; T ½: 7.02 min; koff: 0.00165 s⁻¹; kon: 2.14e+06 M⁻¹ s⁻¹

**Q.** Which results are given for B12?
**A.** Kd: 0.69 nM; T ½: 6.05 min; koff: 0.00191 s⁻¹; kon: 2.75e+06 M⁻¹ s⁻¹

**Q.** Which results are given for B13?
**A.** Kd: 0.47 nM; T ½: 7.85 min; koff: 0.00147 s⁻¹; kon: 3.12e+06 M⁻¹ s⁻¹

**Q.** Which Kd does the source give for B14 here?
**A.** The Kd was 0.65 nM.

**Q.** What about the “T ½” value of the same binder?
**A.** The value was 5.09 min.

**Q.** And the koff?
**A.** Its koff is 0.00227 s⁻¹.

**Q.** What about the kon of the same binder?
**A.** The kon was 3.48e+06 M⁻¹ s⁻¹.
